Test in all cases: AVEXIS screen signal:noise (double-corrected)
In test [1] the target is T1, ADP296.
T1 chain: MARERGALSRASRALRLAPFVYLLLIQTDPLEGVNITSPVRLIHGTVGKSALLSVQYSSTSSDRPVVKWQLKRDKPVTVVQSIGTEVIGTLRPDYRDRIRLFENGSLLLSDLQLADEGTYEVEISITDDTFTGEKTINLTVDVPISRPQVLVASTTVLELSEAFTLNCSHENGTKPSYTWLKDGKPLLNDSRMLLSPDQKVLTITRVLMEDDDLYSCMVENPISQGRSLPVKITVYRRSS

Test [2] addresses T2, ADP141.
T2 chain: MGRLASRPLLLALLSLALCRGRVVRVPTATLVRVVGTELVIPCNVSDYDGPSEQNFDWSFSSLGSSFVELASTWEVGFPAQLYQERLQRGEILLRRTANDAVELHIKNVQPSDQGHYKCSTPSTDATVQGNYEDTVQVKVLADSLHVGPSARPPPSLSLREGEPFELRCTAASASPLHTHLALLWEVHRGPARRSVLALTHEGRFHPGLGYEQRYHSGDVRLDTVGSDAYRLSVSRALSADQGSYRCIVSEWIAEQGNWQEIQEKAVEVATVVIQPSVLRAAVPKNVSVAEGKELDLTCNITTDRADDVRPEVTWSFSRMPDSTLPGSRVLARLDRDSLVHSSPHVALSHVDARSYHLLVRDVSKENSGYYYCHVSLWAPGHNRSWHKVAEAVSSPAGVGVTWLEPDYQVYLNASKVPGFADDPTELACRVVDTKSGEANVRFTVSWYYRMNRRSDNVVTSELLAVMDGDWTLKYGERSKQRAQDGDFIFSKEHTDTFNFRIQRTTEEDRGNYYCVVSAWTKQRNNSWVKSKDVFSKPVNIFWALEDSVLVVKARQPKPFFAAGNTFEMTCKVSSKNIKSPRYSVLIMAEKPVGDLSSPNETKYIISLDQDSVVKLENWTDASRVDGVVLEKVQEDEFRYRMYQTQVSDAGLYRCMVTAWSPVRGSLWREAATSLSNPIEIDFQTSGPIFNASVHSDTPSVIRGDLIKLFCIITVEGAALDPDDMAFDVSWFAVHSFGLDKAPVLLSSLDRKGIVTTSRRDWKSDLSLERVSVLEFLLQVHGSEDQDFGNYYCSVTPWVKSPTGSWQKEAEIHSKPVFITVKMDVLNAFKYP

Test [3] has as its target T3, ADP104.
T3 chain: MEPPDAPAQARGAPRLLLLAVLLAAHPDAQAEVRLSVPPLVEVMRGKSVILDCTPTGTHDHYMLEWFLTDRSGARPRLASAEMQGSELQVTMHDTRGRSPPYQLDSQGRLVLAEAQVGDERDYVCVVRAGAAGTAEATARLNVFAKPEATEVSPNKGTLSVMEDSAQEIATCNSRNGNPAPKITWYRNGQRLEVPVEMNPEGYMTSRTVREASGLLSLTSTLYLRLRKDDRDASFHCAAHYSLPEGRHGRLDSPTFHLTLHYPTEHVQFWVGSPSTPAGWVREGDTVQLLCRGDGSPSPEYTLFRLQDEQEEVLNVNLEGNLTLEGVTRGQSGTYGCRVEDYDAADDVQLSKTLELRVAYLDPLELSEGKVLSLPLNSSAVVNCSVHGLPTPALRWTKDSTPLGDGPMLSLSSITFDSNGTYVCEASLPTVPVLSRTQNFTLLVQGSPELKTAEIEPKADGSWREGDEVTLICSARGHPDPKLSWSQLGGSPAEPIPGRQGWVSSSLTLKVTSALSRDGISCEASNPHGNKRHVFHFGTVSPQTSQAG

Test [4] has as its target T4, ADP325.
T4 chain: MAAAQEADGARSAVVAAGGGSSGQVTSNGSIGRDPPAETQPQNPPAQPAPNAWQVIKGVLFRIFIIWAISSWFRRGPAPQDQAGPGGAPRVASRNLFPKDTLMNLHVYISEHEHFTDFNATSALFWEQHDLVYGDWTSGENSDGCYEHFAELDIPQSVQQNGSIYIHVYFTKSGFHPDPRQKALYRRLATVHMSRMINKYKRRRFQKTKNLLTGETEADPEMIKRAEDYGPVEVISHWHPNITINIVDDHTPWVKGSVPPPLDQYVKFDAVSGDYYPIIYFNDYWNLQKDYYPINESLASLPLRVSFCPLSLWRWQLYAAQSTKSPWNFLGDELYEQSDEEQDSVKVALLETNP

In test [5] the target is ADP132.
For test [6], the target named is ADP110.
The target in test [7] is T5, ADP285.
T5 chain: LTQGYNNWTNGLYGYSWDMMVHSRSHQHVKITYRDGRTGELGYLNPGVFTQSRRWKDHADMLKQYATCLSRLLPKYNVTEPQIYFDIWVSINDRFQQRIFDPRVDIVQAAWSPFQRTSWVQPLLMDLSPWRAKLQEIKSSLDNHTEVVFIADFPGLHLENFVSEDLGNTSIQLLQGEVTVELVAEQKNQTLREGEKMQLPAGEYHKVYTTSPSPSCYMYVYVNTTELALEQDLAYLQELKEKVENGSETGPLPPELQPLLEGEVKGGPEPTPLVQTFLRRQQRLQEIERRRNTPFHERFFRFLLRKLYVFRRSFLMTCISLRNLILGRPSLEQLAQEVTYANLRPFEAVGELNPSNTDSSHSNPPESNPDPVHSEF

The target of test [8] is T6, ADP101.
T6 chain: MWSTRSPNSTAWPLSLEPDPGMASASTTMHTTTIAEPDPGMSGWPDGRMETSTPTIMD

Test [9] deals with T7, ADP360.
T7 chain: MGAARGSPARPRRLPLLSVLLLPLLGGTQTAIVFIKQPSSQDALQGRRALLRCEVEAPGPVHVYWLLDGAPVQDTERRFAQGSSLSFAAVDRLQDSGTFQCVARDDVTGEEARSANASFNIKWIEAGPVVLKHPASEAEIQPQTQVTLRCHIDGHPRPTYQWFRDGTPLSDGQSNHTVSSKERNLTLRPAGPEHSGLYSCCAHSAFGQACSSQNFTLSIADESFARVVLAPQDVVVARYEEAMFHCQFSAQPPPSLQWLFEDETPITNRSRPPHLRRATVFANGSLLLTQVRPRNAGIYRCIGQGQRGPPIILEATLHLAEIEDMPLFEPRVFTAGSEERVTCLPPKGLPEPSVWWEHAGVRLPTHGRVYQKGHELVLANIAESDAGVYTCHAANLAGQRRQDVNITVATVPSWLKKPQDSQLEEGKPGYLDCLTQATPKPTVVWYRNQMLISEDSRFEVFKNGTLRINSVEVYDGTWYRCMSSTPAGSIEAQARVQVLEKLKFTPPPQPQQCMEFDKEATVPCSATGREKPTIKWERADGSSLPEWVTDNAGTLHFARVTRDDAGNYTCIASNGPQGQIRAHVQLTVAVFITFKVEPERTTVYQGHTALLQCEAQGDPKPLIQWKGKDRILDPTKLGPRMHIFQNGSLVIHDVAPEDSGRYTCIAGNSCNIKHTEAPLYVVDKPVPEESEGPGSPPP

The target of test [10] is T8, ADP103.
T8 chain: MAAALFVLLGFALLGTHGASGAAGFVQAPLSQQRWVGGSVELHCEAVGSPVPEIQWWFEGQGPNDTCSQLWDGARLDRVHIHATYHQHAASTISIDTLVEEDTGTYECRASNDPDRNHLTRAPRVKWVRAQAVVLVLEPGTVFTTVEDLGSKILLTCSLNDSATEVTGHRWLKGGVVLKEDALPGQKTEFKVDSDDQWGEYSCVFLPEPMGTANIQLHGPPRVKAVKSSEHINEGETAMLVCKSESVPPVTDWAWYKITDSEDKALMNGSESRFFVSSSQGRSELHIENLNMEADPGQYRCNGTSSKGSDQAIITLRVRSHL

B1: ADP233 (protein)
chain: SPGNDNNNVNNDGVVHVLSKNIDVKNLQGTFYEIATNAADKIFPGLACRCTKYEFSGLKRDGNLGYVLINFACARNFIFGEKKSEMTFKLILNKPLDENTATVEEFNAAIYLVQGNQQILLNGNINIIYAELNEQNEFEHLILGGQKSIEPMIIMSKYRTVLLDTYNKLINSLYLAGYEPSLLTWPFIIQTDQTFCD
modifications: bait human Fc-tagged dimer; N-glycosylation sequons mutated in Plasmodium baits
Take B1: the binding score amounted to 6.11 in test [1], 5.97 in test [2] and 7.73 in [3].

B2: ADP222 (protein)
chain: NVVAPKSAEAVHTLTAKLDTENKAHQKYIDIINGVFSENMENFVFSITTSNGFTCSINKLDVIFDNKVTGMQKVFSDENVQYIKEASLEFKNNLLEYMKGVMPSENDFSNVRKEFQKVCVKYFSELRRKFFQIYRDPNNKNQNEDNVDNHMNIEEISQEFFSGFNPFGTMKIRKEQNPDLSQKDSLILNENNNDALTSADQKNNNMVPMENRAFSYSQQSSHVVSFDGHDEHVEQQEQHSGDNTQEDKDQLMDLPFNKDKVFSTFLKNVALLIEGNCAEAQQQAQEQTQEQTEEQEEEQNEKEIESDKQVQKDGEQKENDVQKKQKANAFTIQFSSSLSRKHISTTCNAASGNVFLRKGNKPFEHFNSPNFENMMKGVFGIIQNPFENGQPTFPFFKNINSISGIGNVDIPKNFMNDFLNNGNDQNTPISS
modifications: bait human Fc-tagged dimer; N-glycosylation sequons mutated in Plasmodium baits
In [4], B2 came in with a binding score of 6.14.

B3: ADP190 (protein)
chain: IQLHSVNYAPLNYIEIGDTLSNKVGELWHSHLNSFIDIVSTKVVNKLEDDLSNGNNLEKFMILLEDDADIFDASAYEGKNLALIQTEFIRKLKDKFKNSKFGQKLKKLGSKAKEKLLSLYQKHKGKLRHFFSILLKSLVIPIAVQFIRKNLNKWKQRTLEATQKLDEQSKNIAQPIINRLYNSFEDKIEEYSQENKINVEDELNALGQLDKDKQDIQKLEEQEKALLQ
modifications: bait human Fc-tagged dimer; N-glycosylation sequons mutated in Plasmodium baits
For the molecule B3, the binding score in test [5] was 11.3; in test [6], 11.4.

B4: ADP70 (protein)
chain: FENAIKKTKNQENNLALLPIKSTEEEKDDIKNGKDIKKEIDNDKENIKTNNAKDHSTYIKSYLNTNVNDGLKYLFIPSHNSFIKKYSVFNQINDGMLLNEKNDVKNNEDYKNVDYKNVNFLQYHFKELSNYNIANSIDILQEKEGHLDFVIIPHYTFLDYYKHLSYNSIYHKSSTYGKCIAVDAFIKKINEAYDKVKSKCNDIKNDLIATIKKLEHPYDINNKNDDSYRYDISEEIDDKSEETDDETEEVEDSIQDTDSNHAPSNKKKNDLMNRAFKKMMDEYNTKKKKLIKCIKNHENDFNKICMDMKNYGTNLFEQLSCYNNNFCNTNGIRYHYDEYIHKLILSVKSKNLNKDLSDMTNILQQSELLLTNLNKKMGSYIYIDTIKFIHKEMKHIFNRIEYHTKIINDKTKIIQDKIKLNIWRTFQKDELLKRILDMSNEYSLFITSDHLRQMLYNTFYSKEKHLNNIFHHLIYVLQMKFNDVPIKMEYFQTYKKNKPLTQ
modifications: bait human Fc-tagged dimer; N-glycosylation sequons mutated in Plasmodium baits
Take B4: the binding score came out at 7.62 in test [7], 6.6 in test [8], 6.35 in test [9] and 4530 in test [10].
